Assay results from publication PMC8183418.
Read-outs that look alike come from different tables or passages of the source.

Columns and labels:
ISG20 [1] = molecular target: T1, ISG20 (UniProt Q96AZ6 1-181); assay: EMSA
ISG20 [2] = molecular target: T1, ISG20; assay: EMSA; remark: listed apart in the source

T1 sequence (Q96AZ6 whole entry): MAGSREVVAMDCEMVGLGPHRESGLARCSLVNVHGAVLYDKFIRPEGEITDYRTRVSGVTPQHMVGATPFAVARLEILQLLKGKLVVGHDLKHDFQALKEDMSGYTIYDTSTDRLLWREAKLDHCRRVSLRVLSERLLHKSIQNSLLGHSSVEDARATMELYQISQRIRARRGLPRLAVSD

Binder	binding result (ISG20 [1])	binding result (ISG20 [2])
GGTCGTCCGCAGGATTCAGCGCCG (ssDNA) [033: (-) ssDNA]	binds	
GGTUGTUUGUAGGATTUAGUGUUG (ssDNA, all deoxycytidines replaced by deoxyuridine; U = dU) [035: dU-containing (-) ssDNA]		binds
CGGCGCTGAATCCTGCGGACGACC (ssDNA) [036: (+) ssDNA]	binds	
